In general, Kd refers to the equilibrium constant for the complex coming apart. In general, koff refers to the rate constant with which the complex falls apart. High values mean fast dissociation, low ones slow dissociation. The term kon denotes the rate constant with which the complex forms. The low end stands for slow association, the high end for fast association.

These results are taken from patent US20220227850A1 (CRESCENDO BIOLOGICS, published 2022).

Test [1] has as its target T1, mouse serum albumin (mouse, UniProt P07724 25-608).
T1 construct: also called MSA
The test is described as follows: SPR, Biacore T200, single cycle kinetics, MSA amine coupled to CM5 chip, pH 7.4. How it is done:
(§1) Binding studies with human, cyno and mouse serum albumin in pH 7.4 and pH 6.0 were carried out using single cycle kinetics on a Biacore T200. Serum albumin (HSA, CSA, MSA) were coupled to CM5 chip by amine coupling using the amine reagent coupling kit GE Healthcare BR-1000-50. The surface of the chip was activated according to manufacturer's instructions. Serum albumin (HSA, CSA, MSA) were captured and cross-linked to the sensor chip surface by injecting of serum albumin (HSA, CSA, MSA) in 10 mM sodium acetate, pH 5.0. Following with the injection of 1M Ethanolamine to stabilise the serum albumin on the surface. With this procedure around 300 RU were immobilized.
(§2) For kinetics measurement four-fold serial dilution of the VH single domain antibodies (194D04-2 or 191 E02-2) in either PBST pH 7.4 or PBST pH 6.0 were injected with 120s association and 300s dissociation at the flow rate of 45 μl/min at 25° C. Binding response was corrected by subtracting both the blank flow cell and from buffer run on the same flow cell. The traces were fitted using 1:1 model.
In general terms: Surface plasmon resonance follows binding to a sensor surface in real time, without labels.

The target of test [2] is T2, Cyno Serum Albumin (cyno, UniProt A2V9Z4 25-608).
T2 construct: Serum purified CSA (Abcam ab184894) is named for immunisation; also called CSA; cynomolgus serum albumin
Nature of the test: SPR, Biacore T200, single cycle kinetics, albumin amine coupled to CM5 chip, 25 C, pH 6.0. As to the method:
as §1, §2

Test [3] deals with T3, Human Serum Albumin (human, UniProt P02768 25-609).
T3 construct: also called HSA
Described as above. How it is done: as §1, §2

Test [4] addresses T2, Cyno Serum Albumin. The test is described as follows: SPR, Biacore T200, single cycle kinetics, albumin amine coupled to CM5 chip, 25 C, pH 7.4. As to the method: as §1, §2
In test [5] the target is T3, Human Serum Albumin. The description is as above. How it is done:
as §1, §2

B1: SEQ ID NO. 5 (VH single domain antibody binding HSA) (VHH)
VHH: EVQLLESGGGLVKPGGSLRLSCAASGFTVSSYTMNWVRQAPGKGLEWVSSISSSGRYIYYADSVKGRFTISRDNAKNSLYLQMNSLRAEDTAVYYCARDPRMVGNPHEFDIWGQGTMVTVSS
notes: Human VH single domain antibody (Humabody) from a transgenic mouse, not a camelid VHH; also called Humabody 2; Humabody VH
B1: in test [1], the binding result was “no binding”. Also, the Kd in test [2] was 4.9 nM; in test [3], 37 nM; in test [4], 11 nM; in test [5] it was 30 nM. Besides, the koff in test [2] is 0.0032 s⁻¹; in test [3], 0.031 s⁻¹; in test [4], 0.0065 s⁻¹; in test [5], 0.019 s⁻¹. For the same molecule, the kon in test [2] is 640000 M⁻¹ s⁻¹; in test [3] it was 840000 M⁻¹ s⁻¹; in test [4] it was 570000 M⁻¹ s⁻¹; in test [5], 620000 M⁻¹ s⁻¹.

B2: SEQ ID NO. 30 (VH single domain antibody binding HSA, variant of SEQ ID NO. 1) (VHH)
VHH: EVQLVESGGGLVKPGGSLRLSCAASGFTFSNYNMNWVRQAPGKGLEWVSSISSAGTHIYYADSVKGRFTISRDNAKNSLYLQMNSLRAEDTAVYYCARDPHSTGWYKDFDYWGQGTLVTVSS
notes: Human VH single domain antibody (Humabody) from a transgenic mouse, not a camelid VHH; also called Humabody VH; variant of Humabody 1
On to B2, for which the binding result in test [1] is listed as “no binding”. Moreover, the dissociation constant Kd amounted to 99 nM in test [2], 600 nM in test [3], 100 nM in test [4] and 590 nM in test [5]. The koff stood at 0.0644 s⁻¹ in test [2], 0.32 s⁻¹ in test [3], 0.041 s⁻¹ in test [4] and 0.19 s⁻¹ in test [5]. For the same molecule, the kon in test [2] is 640000 M⁻¹ s⁻¹; in test [3], 530000 M⁻¹ s⁻¹; in test [4], 290000 M⁻¹ s⁻¹; in test [5] it was 330000 M⁻¹ s⁻¹.
